Measured values as given in patent US20250382359A1.

Target: GFRAL (co-expressed with RET on HEK293 stable cells) (UniProt Q6UXV0)
Test: cell-based or functional assay

GFRAL (co-expressed with RET on HEK293 stable cells), sequence (Q6UXV0 19-394 limits assumed): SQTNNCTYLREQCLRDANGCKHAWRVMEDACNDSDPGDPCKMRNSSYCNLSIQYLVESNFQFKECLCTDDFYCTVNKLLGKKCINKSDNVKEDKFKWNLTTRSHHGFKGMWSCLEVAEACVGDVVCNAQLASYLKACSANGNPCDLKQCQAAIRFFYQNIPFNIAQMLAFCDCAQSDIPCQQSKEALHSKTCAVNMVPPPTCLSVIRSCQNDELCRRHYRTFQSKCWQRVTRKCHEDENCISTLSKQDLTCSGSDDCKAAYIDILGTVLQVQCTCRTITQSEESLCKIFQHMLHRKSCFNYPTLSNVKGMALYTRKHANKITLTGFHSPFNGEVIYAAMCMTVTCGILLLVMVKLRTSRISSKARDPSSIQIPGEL

Luciferase assay, GFRAL/RET/SRE reporter HEK293 cells; EC80 of GDF15: 2 nM
pERK assay, GFRAL/RET HEK293 cells; EC80 of GDF15: 850 pM
Substance: GDF15 (ligand used in the GFRAL/RET cell assays) (from UniProt Q99988 197-308)
